According to the RNAGym collection of RNA variant scans (doi:10.7554/elife.80360):

B1: CPEB3 Ribozyme (parent)
chain: GGGGGCCACAGCAGAAGCGUUCACGUCGCGGCCCCUGUCAGAUUCUGGUGAAUCUGCGAAUUCUGCUGU

Variants of: B1
Assay: self-cleavage, relative activity (ratio to wild type); higher = more cleavage; co-transcriptional

Variant	self-cleavage
C35G C66U	0.474
C35G C66A	0.308
C35U U36A	0.212
C35U U36C	0.941
C35U U36G	0.237
C35A U62A	0.306
C35A U62G	0.21
C35A U62C	0.242
C35G G47U	0.553
C35G G47C	0.634
C35G U64G	0.304
C35G U64C	0.274
C35G U38A	0.417
C35G U38G	0.178
C35G G48U	0.491
C35G G48A	0.452
C35U A42G	0.943
C35U A42U	0.907
C35U A42C	0.81
C35G C63A	0.341
C35G G56A	0.297
C35G G56U	0.307
C35G G56C	0.331
C35A U64A	0.205

Variant	self-cleavage
C35A U64C	0.276
C35A U64G	0.318
C35G C39A	0.362
C35U U53A	0.833
C35U U55C	0.699
C35U U55G	0.653
C35G A51C	0.426
C35G A51G	0.461
C35G A51U	0.445
C35G U69A	0.543
C35G U69C	0.77
C35G U69G	0.545
C35A U44C	0.277
C35G G68A	0.741
C35G G68C	0.77
C35G A60G	0.239
C35G A60U	0.217
C35G A60C	0.348
C35G G37C	0.206
C35G G37U	0.257
C35G G37A	0.219
C35A U43A	0.185
C35A U43C	0.264
C35A U43G	0.227

Variant	self-cleavage
C35A G65U	0.184
C35A G65A	0.299
C35G C45U	0.483
C35G C45G	0.452
C35G C45A	0.475
C35G U67G	0.574
C35G U67A	0.638
C35A U69C	0.417
C35A U69A	0.358
C35U U38C	0.876
C35U U38A	0.901
C35U U38G	0.184
C35U U46G	0.967
C35U U46A	0.907
C35U U46C	0.976
C35U U62G	0.804
C35U U62A	0.813
C35G U46C	0.378
C35U A40G	0.914
C35U U49G	0.909
C35U U49C	0.956
C35G U53G	0.214
C35G U53C	0.342
C35A U61G	0.288

Variant	self-cleavage
C35A U61A	0.231
C35A G58U	0.286
C35A U46G	0.356
C35A U46A	0.268
C35G U49C	0.513
C35U A52U	0.973
C35U A52G	0.974
C35G A52C	0.433
C35G A52U	0.474
C35A U53G	0.24
C35A U53C	0.225
C35A U53A	0.266
C35A G68U	0.394
C35A G68C	0.345
C35G G58C	0.295
C35G G58U	0.375
C35U G56C	0.651
C35U G56A	0.819
C35U G56U	0.859
C35U G65A	0.847
C35U G65U	0.632
C35G G41U	0.341
C35U G37A	0.253
C35U C66A	0.828

Variant	self-cleavage
C35A U55A	0.244
C35A U55G	0.196
C35A U55C	0.357
C35A U36C	0.245
C35A U36G	0.232
C35U C63U	0.954
C35U C63A	0.77
C35U C63G	0.588
C35U G50C	0.979
C35U G50A	0.974
C35G A59U	0.254
C35G C57A	0.243
C35G C57G	0.212
C35U U44A	0.889
C35U U44C	0.919
C35U A59U	0.564
C35U A59C	0.41
C35U A59G	0.999
C35A U38A	0.279
C35A U38C	0.256
C35U G47A	0.918
C35U G47U	1.01
C35U G47C	0.967
C35U C57A	0.323

Variant	self-cleavage
C35U U43C	0.866
C35U U43A	0.818
C35G U62G	0.308
C35G U62A	0.313
C35A G56A	0.218
C35A G56U	0.223
C35A G56C	0.253
C35G U61A	0.33
C35A U67C	0.324
C35G U44C	0.357
C35G U44A	0.346
C35U G58U	0.984
C35U G58A	0.878
C35U G58C	0.878
C35U U64C	0.836
C35U U64A	0.83
C35G U43C	0.372
C35G U43G	0.31
C35G U43A	0.335
C35G C54G	0.348
C35U C39A	0.782
C35U C39G	0.878
C35U G68C	0.963
C35U G68U	1.01

Variant	self-cleavage
C35G G65U	0.223
C35U G41U	0.745
C35U G41C	0.632
C35G A40U	0.261
C35G A40G	0.394
C35G A40C	0.225
C35U C45G	0.956
C35A U49A	0.303
C35A U49C	0.342
C35A U49G	0.26
C35G A42G	0.503
C35G A42U	0.308
C35G G50A	0.36
C35G G50U	0.443
C35U C54A	0.744
C35U G48C	0.964
C35U G48U	0.987
C35U G48A	1.01
C35U A51G	0.904
C35U A51U	0.904
C35U A51C	0.958
C35U U61A	0.596
C35U U61G	0.854
